Earlier results in publication PMC10977282.

Target: DR5 (Homo sapiens) (UniProt O14763)

Kd: < 400 nM
Substance: OPG (from UniProt O00300)
